# Reference: US20210180049A1 (CHUGAI SEIYAKU KABUSHIKI KAISHA, priority 2013, published 2021)
# T1: human IL-6 receptor (hIL-6R) (Homo sapiens, UniProt P08887)
# T1 sequence (P08887 20-357): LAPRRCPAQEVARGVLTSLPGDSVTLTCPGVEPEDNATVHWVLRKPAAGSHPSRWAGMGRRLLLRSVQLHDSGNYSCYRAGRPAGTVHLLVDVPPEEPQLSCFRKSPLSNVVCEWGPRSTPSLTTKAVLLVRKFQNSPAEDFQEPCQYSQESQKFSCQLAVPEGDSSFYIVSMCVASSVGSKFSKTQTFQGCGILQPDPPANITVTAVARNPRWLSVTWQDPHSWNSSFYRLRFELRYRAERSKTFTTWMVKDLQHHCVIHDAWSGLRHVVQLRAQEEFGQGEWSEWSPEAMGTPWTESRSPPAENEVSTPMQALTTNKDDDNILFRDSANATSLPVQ
# B1: 6RNMSC1-2_F02: antibody binding hIL-6R in the presence of kynurenine; heavy chain SEQ ID NO: 32, light chain SEQ ID NO: 33 (antibody, listed as Homo sapiens, V domains shown)
# VH: QVQLVQSGAEVKKPGSSVKVSCKASGGTFSSYAISWVRQAPGQGLEWMGGIIPIFGTANYAQKFQGRVTITADESTSTAYMELSSLRSEDTAVYYCARDAPVVARPRGAFDIWGQGTMVTVSS
# VL: DIVMTQTPLSSPVTLGQPASISCRSSQSLVHSDGNTYLSWLQQRPGQPPRLLIHEISNRFSGVPDRFSGSGAGTNFTLKISRVEAEDVGVYYCMQATQFPRTFGQGTKVEIK
# Experiments:
# [1] = assay type: binding; conditions: Biacore T200, 15° C.
# Procedure: Kynurenine-dependent antibody 6RNMSC1-2_F02 obtained from the library was assessed for its binding to kynurenine and derivatives thereof using Biacore T200 (GE Healthcare). The following […] molecules were assessed as derivatives: the kynurenine isomer D-kynurenine and the derivatives 3-hydroxy-DL-kynurenine, 4-(4-methylphenyl)-4-oxobutyric acid, R00447436-000-001, RO0635389-000-001, R00438566-001-001, and RO0635390-000-001. The chemical structure of each compound is shown below.
# An appropriate amount of protein A (Invitrogen) was immobilized onto Sensor chip CM4 (GE Healthcare) by the amine coupling method. The antibody of interest was captured thereon, and the antigen kynurenine and derivatives thereof were allowed to interact. The running buffer used was 50 mmol/L Tris-HCl, 150 mmol/L NaCl, 0.02% (w/v) Tween 20, 5% DMSO, pH 7.6. All measurements were carried out at 15° C. The antigens were diluted with the running buffer.
# Then, the running buffer was run at a flow rate of 30 μL/min for 60 seconds to observe the dissociation of antigens from the antibody. Kinetic parameters, the association rate constant ka (1/Ms) and the dissociation rate constant kd (l/s), were calculated based on the sensorgrams obtained by the measurements. The dissociation constant KD (M) was calculated from these constants. Each parameter was calculated using Biacore T200 Evaluation Software (GE Healthcare).
# [2] = target: T1, human IL-6 receptor (hIL-6R); experiment: IgG ELISA for hIL-6R binding in the presence of amino acids and amino acid metabolites (Table 14); conditions: IgG 2.5 μg/mL
# Procedure: Meanwhile, each of the amino acids and metabolites thereof were appropriately prepared at the concentrations shown in Table 14 using the buffers shown in Table 13. The antigen used was biotin-labeled hIL-6R.
# First, a StreptaWell 96 microtiter plate (Roche) was coated with 100 μL of PBS containing biotin-labeled antigens at room temperature for one hour or longer. […] 100 μL of each of the purified IgGs prepared at 2.5 μg/mL using Sample Buffer containing small molecules at the final concentrations shown in Table 14 were added to each well, and the plate was let still at room temperature for one hour to allow each IgG to bind to the antigen present in each well. After washing with Wash Buffer containing amino acids and amino acid metabolites at the final concentrations shown in Table 14, HRP-conjugated anti-human IgG antibody (BIOSOURCE) diluted with Sample Buffer containing amino acids and amino acid metabolites was added to each well, and the plate was incubated for one hour. After washing with Wash Buffer containing the respective amino acids and amino acid metabolites, the chromogenic reaction of TMB single solution (ZYMED) added in each well was terminated by adding sulfuric acid. Then, the color development was measured by absorbance at 450 nm.
# [3] = target: T1, human IL-6 receptor (hIL-6R); experiment: phage ELISA for hIL-6R binding in the presence/absence of small molecule cocktail (SC); conditions: absorbance at 450 nm
# Procedure: From a single colony of E. coli obtained in (6-1), a phage-containing culture supernatant was collected according to a conventional method (Methods Mol. Biol. (2002) 178, 133-145). […] A StreptaWell 96 microtiter plate (Roche) was coated overnight with 100 μL of TBS containing biotin-labeled hIL-6R. […] After removing 2% skim milk/TBS, purified phages were added to each well of the plate, and the plate was left still at room temperature for one hour to allow antibody-presenting phages to bind to biotin-labeled hIL-6R present in each well in the presence/absence of SC. Each well was washed with TBST or SC/TBST, and HRP-conjugated anti-M13 antibody (Amersham Pharmacia Biotech) diluted with TBS or SC/TBS was added thereto, and the plate was incubated for one hour. After washing with TBST or SC/TBST, the chromogenic reaction of TMB single solution (ZYMED) added in each well was terminated by adding sulfuric acid. Then, the color development was measured by absorbance at 450 nm.
# [4] = target: T1, human IL-6 receptor (hIL-6R); experiment: SPR dissociation of antibody from immobilized hIL-6R with or without kynurenine; assay type: binding; conditions: bound in 100 μmol/L kynurenine, then buffer without kynurenine
# Procedure: The running buffers used were 20 mmol/L ACES, 150 mmol/L NaCl, 0.05% (w/v) Tween 20, pH 7.4, and 20 mmol/L ACES, 150 mmol/L NaCl, 0.05% (w/v) Tween 20, pH 7.4, 100 μmol/L kynurenine. The measurements were performed at 25° C. As an analyte, 5 μg/mL 6RNMSC1-2_F02 diluted with 20 mmol/L ACES, 150 mmol/L NaCl, 0.05% (w/v) Tween 20, pH 7.4, containing 100 μmol/L kynurenine was allowed to interact for 180 seconds with hIL-6R immobilized onto Sensor chip CM5 by amine coupling. Then, the mode of the dissociation of hIL-6R was observed under each running buffer condition. […] Specifically, the regulation by kynurenine on binding of the antibody to hIL-6R was confirmed to be reversible.
molecule,measurement,setting,value
B1,binding to 3-hydroxy-DL-kynurenine,[1],bind
same,binding to RO0635389-000-001,[1],bind
same,binding to RO0635390-000-001,[1],bind
same,absorbance under condition 5 (3-hydroxy kynurenine solution),[2]; 3-Hydroxykynurenine 1 mM,high absorbance similarly to that under condition 1
same,absorbance under condition 7 (no small molecule) compared to condition 1 (kynurenine solution),[2],significantly lower
same,hIL-6R binding in the presence of tryptophan,[2]; Tryptophan 1 mM,does not bind to the antigen hIL-6R
same,binding activity to the antigen hIL-6R in the presence of a small molecule mixture,[3],having binding activity
same,dissociation from hIL-6R when kynurenine is no more present,[4],rapidly dissociating hIL-6R
